What was measured:
Test in all cases: competitive phage ELISA, soluble IGFBP-1 vs coated IGFBP-1
[1] = molecular target: T1, IGF-I T4A (G1S-A70V background) displayed on phage (human; bacteriophage M13)
T1 construct: not shown: The display carrier: M13 gene III protein fragment (residues 249-406) and the junction to it
T1 chain: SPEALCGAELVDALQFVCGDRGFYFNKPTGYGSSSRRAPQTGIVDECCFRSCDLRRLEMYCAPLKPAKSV

[2] = molecular target: T2, IGF-I G1S-A70V displayed on phage (fused to M13 gene III protein residues 249-406) (human; bacteriophage M13)
T2 construct: Monovalent display on M13 phagemid particles; template of the alanine scan; also called G1S-A70V IGF-I; wild-type-like IGF-I variant; not shown: Display carrier: M13 gene III protein fragment (residues 249-406) and the junction to it

[3] = molecular target: T3, IGF-I P63A (G1S-A70V background) displayed on phage (human; bacteriophage M13)
T3 construct: not shown: M13 gene III fragment (residues 249-406), the display partner, and its junction to IGF-I
T3 chain: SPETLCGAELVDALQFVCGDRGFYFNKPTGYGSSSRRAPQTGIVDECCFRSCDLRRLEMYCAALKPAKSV

[4] = molecular target: T4, IGF-I E3A (G1S-A70V background) displayed on phage (human; bacteriophage M13)
T4 construct: not shown: Display carrier: M13 gene III protein fragment (residues 249-406) and its junction to Val70

[5] = molecular target: T5, IGF-I E46A (G1S-A70V background) displayed on phage (human; bacteriophage M13)
T5 construct: not shown: Display carrier: M13 gene III protein fragment (residues 249-406) and the junction to it
T5 chain: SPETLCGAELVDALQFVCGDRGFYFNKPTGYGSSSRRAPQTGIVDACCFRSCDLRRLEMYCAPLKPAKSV

[6] = molecular target: T6, IGF-I E9A (G1S-A70V background) displayed on phage (human; bacteriophage M13)
T6 construct: not shown: M13 gene III fragment (residues 249-406, display carrier) and the IGF-g3 junction
T6 chain: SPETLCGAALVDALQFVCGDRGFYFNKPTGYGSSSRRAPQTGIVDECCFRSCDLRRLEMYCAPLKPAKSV

[7] = molecular target: T7, IGF-I G32A (G1S-A70V background) displayed on phage (human; bacteriophage M13)
T7 construct: not shown: Display carrier: M13 gene III protein fragment (residues 249-406) and the junction to it
T7 chain: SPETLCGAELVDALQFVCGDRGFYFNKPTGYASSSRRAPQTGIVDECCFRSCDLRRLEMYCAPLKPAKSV

[8] = molecular target: T8, des(1-2)-IGF-I displayed on phage (human; bacteriophage M13)
T8 construct: range 249-406; Lacks positions 1 and 2

[9] = molecular target: T9, IGF-I D45A (G1S-A70V background) displayed on phage (human; bacteriophage M13)
T9 construct: not shown: Display carrier: M13 gene III protein fragment (residues 249-406) and the junction to it
T9 chain: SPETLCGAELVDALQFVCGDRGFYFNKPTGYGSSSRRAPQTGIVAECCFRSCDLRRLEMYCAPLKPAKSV

[10] = molecular target: T10, IGF-I D12A (G1S-A70V background) displayed on phage (human; bacteriophage M13)
T10 construct: not shown: M13 gene III fragment (residues 249-406, display carrier) and the IGF-g3 junction
T10 chain: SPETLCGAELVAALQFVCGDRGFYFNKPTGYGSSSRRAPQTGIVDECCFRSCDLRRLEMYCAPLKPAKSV

[11] = molecular target: T11, IGF-I T29A (G1S-A70V background) displayed on phage (human; bacteriophage M13)
T11 construct: not shown: Display carrier: M13 gene III protein fragment (residues 249-406) and the junction to it
T11 chain: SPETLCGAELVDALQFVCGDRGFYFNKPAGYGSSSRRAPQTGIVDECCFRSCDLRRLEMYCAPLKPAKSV

[12] = molecular target: T12, IGF-I Y60A (G1S-A70V background) displayed on phage (human; bacteriophage M13)
T12 construct: not shown: M13 gene III fragment (residues 249-406), the display partner, and its junction to IGF-I
T12 chain: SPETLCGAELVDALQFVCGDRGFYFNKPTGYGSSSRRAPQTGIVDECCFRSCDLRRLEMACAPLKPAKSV

[13] = molecular target: T13, IGF-I G7A (G1S-A70V background) displayed on phage (human; bacteriophage M13)
T13 construct: not shown: M13 gene III fragment (residues 249-406, display carrier) and the IGF-g3 junction
T13 chain: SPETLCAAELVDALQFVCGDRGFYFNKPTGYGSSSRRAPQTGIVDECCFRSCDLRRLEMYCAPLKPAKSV

[14] = molecular target: T14, wild-type IGF-I displayed on phage (double mutation restoring wild type) (human; bacteriophage M13, UniProt P69168 267-424)
T14 construct: range 249-406; also called IGF-I WT; WT

[15] = molecular target: T15, IGF-I Y31A (G1S-A70V background) displayed on phage (human; bacteriophage M13)
T15 construct: not shown: Display carrier: M13 gene III protein fragment (residues 249-406) and the junction to it
T15 chain: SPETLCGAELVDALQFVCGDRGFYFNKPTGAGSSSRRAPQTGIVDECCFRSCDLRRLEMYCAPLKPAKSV

[16] = molecular target: T16, IGF-I S1A (G1S-A70V background) displayed on phage (human; bacteriophage M13)
T16 construct: range 249-406; the result is Ala 1

[17] = molecular target: T17, IGF-I L5A (G1S-A70V background) displayed on phage (human; bacteriophage M13)
T17 construct: not shown: The display carrier: M13 gene III protein fragment (residues 249-406) and the junction to it
T17 chain: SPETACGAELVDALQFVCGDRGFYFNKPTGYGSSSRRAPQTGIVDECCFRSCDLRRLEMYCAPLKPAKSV

[18] = molecular target: T18, IGF-I L64A (G1S-A70V background) displayed on phage (human; bacteriophage M13)
T18 construct: not shown: M13 gene III fragment (residues 249-406), the display partner, and its junction to IGF-I
T18 chain: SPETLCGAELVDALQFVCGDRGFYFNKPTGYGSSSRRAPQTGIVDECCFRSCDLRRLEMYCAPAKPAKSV

B1: human IGFBP-1 (other, UniProt P08833 26-259, looked up)
chain: APWQCAPCSAEKLALCPPVSASCSEVTRSAGCGCCPMCALPLGAACGVATARCARGLSCRALPGEQQPLHALTRGQGACVQESDASAPHAAEAGSPESPESTEITEEELLDNFHLMAPSEEDHSILWDAISTYDGSKALHVTNIKKWKEPCRIELYRVVESLAKAQETSGEEISKFYLPNCNKNGFYHSRQCETSMDGEAGLCWCVYPWNGKRIPGSPEIRGDPNCQIYFNVQN
notes: Secreted recombinant protein
[1]
  relative IC50 (IC50mut/IC50 G1S-A70V): 2.4 fold
[2]
  relative IC50 (IC50mut/IC50 G1S-A70V): 1 fold
[3]
  relative IC50 (IC50mut/IC50 G1S-A70V): > 100 fold
[4]
  relative IC50 (IC50mut/IC50 G1S-A70V): 33.9 fold
[5]
  relative IC50 (IC50mut/IC50 G1S-A70V): 1 fold
[6]
  relative IC50 (IC50mut/IC50 G1S-A70V): 1 fold
[7]
  relative IC50 (IC50mut/IC50 G1S-A70V): 1.3 fold
[8]
  relative IC50 (IC50mut/IC50 G1S-A70V): 0.6 fold
[9]
  relative IC50 (IC50mut/IC50 G1S-A70V): 0.6 fold
[10]
  relative IC50 (IC50mut/IC50 G1S-A70V): 0.5 fold
[11]
  relative IC50 (IC50mut/IC50 G1S-A70V): 0.9 fold
[12]
  relative IC50 (IC50mut/IC50 G1S-A70V): 0.8 fold
[13]
  relative IC50 (IC50mut/IC50 G1S-A70V): > 100 fold
[14]
  relative IC50 (IC50mut/IC50 G1S-A70V): 1 fold
[15]
  relative IC50 (IC50mut/IC50 G1S-A70V): 0.8 fold
[16]
  relative IC50 (IC50mut/IC50 G1S-A70V): 0.6 fold
[17]
  relative IC50 (IC50mut/IC50 G1S-A70V): 6.7 fold
[18]
  relative IC50 (IC50mut/IC50 G1S-A70V): 1.5 fold
